Assay results taken from publication PMC7264293, “Multi-site-mediated entwining of the linear WIR-motif around WIPI β-propellers for autophagy” (Nature Communications, 2020).
No end group written: not given here.

Columns and labels:
WIPI3-Δloop N19A/D21A = test: ITC assay, WIR-peptide binding to WIPI3-Δloop N19A/D21A; parameters: species or system human; details: WIPI3-Δloop N19A/D21A mutant (Supplementary Fig. 5b)
Description: (§1) DNA sequences encoding human WIPI3, WIPI3-Δloop, and two ATG2A fragments (1358–1404 and 1374–1404) were each cloned into a modified pET32a vector. The generation of the fusion construct of WIPI3-Δloop with ATG2A(1374–1404) and the mutations in WIPI3 and the ATG2A fragment were performed by using the standard PCR-based mutagenesis method and confirmed by DNA sequencing. All the primers used in the study were listed in Supplementary Table 3. Recombinant proteins were expressed in Escherichia coli BL21(DE3) (Invitrogen, C6000-03) host cells at 16 °C. […] The eluted proteins were further purified by size-exclusion chromatography (Superdex-200 26/60, GE healthcare). For WIPI3 proteins, after cleavage of the tag, the resulting proteins were purified by another step of size-exclusion chromatography with the buffer containing 50 mM Tris-HCl, pH 8.0, 100 mM NaCl, 1 mM EDTA, 1 mM DTT. For ATG2A fragments, recombinant proteins were purified in the same buffer without cleavage of the tag.
ITC assay was performed using a MicroCalorimeter ITC200 (GE Healthcare Life Sciences, USA) at 25 °C. […]
Supplementary Fig. 5 Structural analysis of the A -B loop of blade 1. […] (b) The binding affinity between the W IR -pept ide and th e W IP I3 -Δloop N19A/D21 A mutant determined b y IT C ex periments. […]

[1] = system: NRK cells with double knock out of ATG2A/ATG2B and stable expression of GFP-LC3; test: Autophagic flux in ATG2A/ATG2B DKO NRK cells in the presence of bafilomycin A1; type: cell-based, rat; details: ATG2A/ATG2B-depleted NRK cells without ATG2A transfection; 10 nM, 2 h
Description: NRK cells with double knock out of ATG2A/ATG2B and stably transfected with GFP-LC3 were generous gifts from L.Y., Tsinghua University. DNA sequences encoding full-length ATG2A and its various mutants were cloned into the pCAG-Tandem-Strep-Flag vector. Cells were cultured in DMEM (GIBCO) supplemented with 10% (v/v) fetal bovine serum, 100 U/ml penicillin and 0.1 mg/ml streptomycin and were grown at 37 °C in a humidified atmosphere containing 5% (v/v) CO2. Cells were transfected with wild-type ATG2A and various mutants by the electroporation apparatus (Bio-Rad) according to the manufacturer’s instructions. After 48 h, cells were washed three times by PBS and fixed by 4% (w/v) paraformaldehyde. […] ATG2A and its various mutants were detected by immunofluorescence with the anti-Flag primary antibody (Sigma-Aldrich, F1804, 1:300 dilution) and dylight 594 secondary antibody (EarthOx, E032410-01, 1:500 dilution). Fluorescence images were obtained on an inverted confocal microscope (LSM 880, Carl Zeiss) equipped with a 100 × oil-immersion objective lens (NA = 1.30). […] All the fluorescence images were processed and analyzed using the ZEN imaging software (Carl Zeiss). […]
μm. (b) Quantification of the increment of LC 3 -positive structures with bafilomycin […]
A1 treatment. The increment o f LC 3 -positive structures per cell was quantified with […]
used for quantifi cation (n = 3) . […]

WIPI3-Δloop = target: T1, WIPI3-Δloop (Homo sapiens, UniProt Q5MNZ6, DEL264-281/DEL75-80); test: ITC assay, WIR-peptide and its mutants binding to WIPI3-Δloop; details: WIPI3-Δloop (Fig. 3e, Supplementary Figs. 6, 7)
T1 construct: GB1-His6 (cleaved yes); made in house; host or cells: Escherichia coli BL21(DE3)
Description: as §1
ITC assay was performed using a MicroCalorimeter ITC200 (GE Healthcare Life Sciences, USA) at 25 °C. Prior to the experiment, the protein samples were dialyzed in the buffer containing 50 mM Tris-HCl, pH 8.0, 100 mM NaCl, 1 mM EDTA, and 1 mM DTT. WIPI3 proteins were put in the sample cell and GB1-tagged ATG2A fragments were in the syringe of the instrument. In each experiment, the ATG2A fragment was sequentially injected into the stirred calorimeter cell initially containing the WIPI3 protein sample with the injection sequence of 20 × 2 µl at 2-min intervals. The heat of dilution obtained by the titration of the ATG2A fragment into the buffer was subtracted. The integrated, corrected, and concentration-normalized peak areas of the raw data were finally fitted with a model of one binding site using ORIGIN 7.0 (OriginLab).

[2] = system: NRK cells with double knock out of ATG2A/ATG2B and stable expression of GFP-LC3; test: LC3-positive structures in ATG2A/ATG2B DKO NRK cells transfected with ATG2A; type: cell-based, rat; details: transfection of full-length ATG2A into ATG2A/B-depleted NRK cells
Description: NRK cells with double knock out of ATG2A/ATG2B and stably transfected with GFP-LC3 were generous gifts from L.Y., Tsinghua University. DNA sequences encoding full-length ATG2A and its various mutants were cloned into the pCAG-Tandem-Strep-Flag vector. Cells were cultured in DMEM (GIBCO) supplemented with 10% (v/v) fetal bovine serum, 100 U/ml penicillin and 0.1 mg/ml streptomycin and were grown at 37 °C in a humidified atmosphere containing 5% (v/v) CO2. Cells were transfected with wild-type ATG2A and various mutants by the electroporation apparatus (Bio-Rad) according to the manufacturer’s instructions. After 48 h, cells were washed three times by PBS and fixed by 4% (w/v) paraformaldehyde. For bafilomycin A1 treatment, cells were cultured in the complete medium containing 10 nM bafilomycin A1 for 2 h before being fixed. ATG2A and its various mutants were detected by immunofluorescence with the anti-Flag primary antibody (Sigma-Aldrich, F1804, 1:300 dilution) and dylight 594 secondary antibody (EarthOx, E032410-01, 1:500 dilution). Fluorescence images were obtained on an inverted confocal microscope (LSM 880, Carl Zeiss) equipped with a 100 × oil-immersion objective lens (NA = 1.30). Confocal settings used for image capture were held constant in comparison experiments. All the fluorescence images were processed and analyzed using the ZEN imaging software (Carl Zeiss). […]

T1 sequence (Q5MNZ6 with tags, fused parts or gaps DEL75-80/DEL264-281): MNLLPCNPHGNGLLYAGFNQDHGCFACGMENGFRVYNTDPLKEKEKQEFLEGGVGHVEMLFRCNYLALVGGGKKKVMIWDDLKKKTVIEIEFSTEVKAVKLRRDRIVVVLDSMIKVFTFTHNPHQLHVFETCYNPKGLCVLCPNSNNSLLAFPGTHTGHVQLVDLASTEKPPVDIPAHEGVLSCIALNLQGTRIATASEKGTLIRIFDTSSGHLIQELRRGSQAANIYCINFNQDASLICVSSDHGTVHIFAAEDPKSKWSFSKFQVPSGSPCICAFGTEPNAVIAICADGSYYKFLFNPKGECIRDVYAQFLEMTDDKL

Compound | effect of the WIR-peptide mutation on the binding, in words (WIPI3-Δloop) | further results
WIR-peptide: GB1-tagged recombinant short fragment (1374–1404) of ATG2A, minimum WIPI-interacting region (PRDGEPVVTQLHPGPIVVRDGYFSRPIGSTD; also: GB1 tag, end not given here, His6 tag, end not given here) | – | binding of the WIR-peptide, in words (WIPI3-Δloop N19A/D21A): abolished the binding
CO/C1=C\C(C)=C\[C@@H](C)[C@@H](O)[C@@H](C)C/C(C)=C/C=C/[C@H](OC)[C@@H]([C@@H](C)[C@@H](O)[C@H](C)[C@@]2(O)C[C@@H](O)[C@H](C)[C@@H](C(C)C)O2)OC1=O [bafilomycin A1] | – | increase of LC3-positive structures in the presence of bafilomycin A1, in words [1]: No obvious increase
WIR-peptide V1380A: WIR-peptide with V1380A point mutation (PRDGEPAVTQLHPGPIVVRDGYFSRPIGSTD; also: GB1 tag, end not given here, His6 tag, end not given here) | affected the binding | –
ATG2A WT: full-length wild-type ATG2A, Tandem-Strep-Flag-tagged, expressed by transfection | – | rescue of the depletion defect (large LC3-positive clusters), in words [2]: could rescue the depletion defect
WIR-peptide D1393A: WIR-peptide with D1393A mutation (PRDGEPVVTQLHPGPIVVRAGYFSRPIGSTD; also: GB1 tag, end not given here, His6 tag, end not given here) | disrupted the binding | –

Second part, led by results:

effect of the WIR-peptide mutation on the binding, in words (WIPI3-Δloop) | Compound | further results
severely impaired the binding | WIR-peptide V1391Q: WIR-peptide with V1391Q point mutation (PRDGEPVVTQLHPGPIVQRDGYFSRPIGSTD; also: GB1 tag, end not given here, His6 tag, end not given here) | –
decreased the binding more severely | WIR-peptide V1381A: WIR-peptide with V1381A point mutation (PRDGEPVATQLHPGPIVVRDGYFSRPIGSTD; also: GB1 tag, end not given here, His6 tag, end not given here) | –
